Data on 1 protein can be found in PMC7432094, “Flexible NAD^+ Binding in Deoxyhypusine Synthase Reflects the Dynamic Hypusine Modification of Translation Factor IF5A” (International Journal of Molecular Sciences, 2020).

The data set concerns the molecule itself. The data set can be described thus: crystal structure; sitting drop, 20 °C, 100 mM phosphate-citrate pH 4.8, 32% ethanol, 5% PEG 1000; four PhoDHS molecules in the asymmetric unit, dimer of dimers with point group D2.

B1: deoxyhypusine synthase from Pyrococcus horikoshii OT3 (enzyme, UniProt O50105 1-342, looked up)
chain: MKAKDIVLKKSEKIEGVEVKGPWLDDAQSLEEVVSYYYRIGFQATHLGRAIEIWRKVEEKRERGEEIRVFLGYTSNIISSGLREIIAWLVKEKKVDVIVTTAGGVEEDFIKSLKPFILGDWEVDDAELRKKGVNRIGNIFVPNDRYIEFEKYMIPFFERVLKIEEKLSRPLTASEFIYEMGRYMDEKLGKEKEKSVIYWAYKNNIPIFCPAITDGSIGDMLYFFKEERRDSRLIIDIANDIVKLNNLAITAKETASIILGGSLPKHAIINANLFRGGTDYAIYISTAVPWDGSLSGAPPREGVSWGKIKAKADYVEVWGDATLIFPILVWMVMKARGQGYAQ
notes: deoxyhypusine synthase (DHS), Pyrococcus horikoshii OT3, UniProtKB O50105, residues 1-342 (342 residues in all, 39 kDa); Homotetramer (dimer of dimers, D2); The His6 tag was removed with TEV protease at the site Glu-Asn-Leu-Tyr-Phe-Gln-Gly, so a residue of the site may remain at the N-terminus; also called PhoDHS; DHS; not shown: His6, N-terminal, cleaved
As usually defined, the stoichiometry N is a count of units in the complex or per binding partner. With B1, the “stoichiometry N” value was 4.
